Non-standard residues stand in square brackets, D forms with d. No end group written: not given here. *: point of attachment. Phe(F5) = N[C@@H](Cc1c(F)c(F)c(F)c(F)c1F)C(=O)O; Desaminotyrosyl = O=C(CCc1ccc(O)cc1)*; NMeY = CN[C@@H](Cc1ccc(O)cc1)C(=O)O; Agmatine = N=C(N)NCCCCN*; Nle = CCCC[C@H](N)C(=O)O; Orn = NCCC[C@H](N)C(=O)O; Abu = CC[C@H](N)C(=O)O; Ava = NCCCCC(=O)O
T1: GHRH receptor of human pituitary membranes (human, UniProt Q02643)
T1 sequence: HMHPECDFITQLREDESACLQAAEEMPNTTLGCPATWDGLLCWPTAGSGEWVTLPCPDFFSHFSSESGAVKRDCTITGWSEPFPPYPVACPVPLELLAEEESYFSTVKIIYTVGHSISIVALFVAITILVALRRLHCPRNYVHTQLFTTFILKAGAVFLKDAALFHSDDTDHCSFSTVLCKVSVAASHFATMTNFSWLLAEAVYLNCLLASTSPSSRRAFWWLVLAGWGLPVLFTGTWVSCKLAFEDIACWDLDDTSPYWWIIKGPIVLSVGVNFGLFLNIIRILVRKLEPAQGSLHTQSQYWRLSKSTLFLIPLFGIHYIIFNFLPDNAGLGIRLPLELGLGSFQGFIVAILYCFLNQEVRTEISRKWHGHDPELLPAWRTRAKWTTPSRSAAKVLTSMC


Columns and labels:
[1] = target: T1, GHRH receptor of human pituitary …; assay: competition vs 125I-JV-1-42, human pituitary membranes;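 note: pituitaries used were normal human glands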
Description: Normal human pituitaries were purchased from the National Hormone and Peptide Program (A.F. Parlow, Los Angeles, County Harbor-UCLA Medical Center, Torrance, Calif.).

[2] = target: T1, GHRH receptor of human pituitary …; assay: competition vs 125I-[His1,Nle27]hGHRH(1-32)NH2, human pituitary membranes
Description: Normal human pituitary was purchased from the National Hormone and Peptide Program (UCLA Medical Center, Torrance, Calif.).

| Binder | IC50 [1] [nM] | relative affinity (binding potency) vs JI-38 [1] [vs JI-38=1] | relative affinity (binding potency) compared to JI-38 [2] [vs JI-38=1] | relative affinity (binding potency) compared to hGHRH(1-29) [2] | IC50 [2] [nM] |
| --- | --- | --- | --- | --- | --- |
| [Desaminotyrosyl]ADAIFTQSYR[Orn]VL[Abu]QLSAR[Orn]LLQDI[Nle]DR-NHMe (SMILES CCCC[C@H](NC(=O)[C@@H](NC(=O)[C@H](CC(=O)O)NC(=O)[C@H](CCC(N)=O)NC(=O)[C@H](CC(C)C)NC(=O)[C@H](CC(C)C)NC(=O)[C@H](CCCN)NC(=O)[C@H](CCCNC(=N)N)NC(=O)[C@H](C)NC(=O)[C@H](CO)NC(=O)[C@H](CC(C)C)NC(=O)[C@H](CCC(N)=O)NC(=O)[C@H](CC)NC(=O)[C@H](CC(C)C)NC(=O)[C@@H](NC(=O)[C@H](CCCN)NC(=O)[C@H](CCCNC(=N)N)NC(=O)[C@H](Cc1ccc(O)cc1)NC(=O)[C@H](CO)NC(=O)[C@H](CCC(N)=O)NC(=O)[C@@H](NC(=O)[C@H](Cc1ccccc1)NC(=O)[C@@H](NC(=O)[C@H](C)NC(=O)[C@H](CC(=O)O)NC(=O)[C@H](C)NC(=O)CCc1ccc(O)cc1)[C@@H](C)CC)[C@@H](C)O)C(C)C)[C@@H](C)CC)C(=O)N[C@@H](CC(=O)O)C(=O)N[C@@H](CCCNC(=N)N)C(=O)NC) [P-27407 [Dat^1, Gln^8, Orn^12, Abu^15, Orn^21, Nle^27, Asp^28]hGHRH(1-29)NH-CH3] | 3 | 1.45 | 0.54 | 1.52 vs hGHRH(1-29)NH2=1 |  |
| [NMeY][dA]DAIFTNSYR[Orn]VL[Abu]QLSAR[Orn]LLQDI[Nle]DR-NHMe [P-27409 [N-Me-Tyr^1, D-Ala^2, Orn^12, Abu^15, Orn^21, Nle^27, Asp^28]hGHRH(1-29)NH-CH3] | 1.06 | 4.1 | 2.71 | 7.57 vs hGHRH(1-29)NH2=1 | 1.01 |
| [NMeY][dA]DAI[Phe(F5)]TNSYR[Orn]VL[Abu]QLSAR[Orn]LLQDI[Nle]DR-NHMe [P-27404 [N-Me-Tyr^1, D-Ala^2, Fpa5^6, Orn^12, Abu^15, Orn^21, Nle^27, Asp^28]hGHRH(1-29)NH-CH3] | 0.87 | 5 | 2.45 | 6.83 vs hGHRH(1-29)NH2=1 |  |
| [NMeY]ADAIFTQSYR[Orn]VL[Abu]QLSAR[Orn]LLQDI[Nle]SR-NHMe [P-27405 [N-Me-Tyr^1, Gln^8, Orn^12, Abu^15, Orn^21, Nle^27]hGHRH(1-29)NH-CH3] | 1.08 | 4.03 | 1.09 | 3.04 vs hGHRH(1-29)NH2=1 |  |
| Ac-[NMeY][dA]DAIFTQSYR[Orn]VL[Abu]QLSAR[Orn]LLQDI[Nle]D[Agmatine] (SMILES CCCC[C@H](NC(=O)[C@@H](NC(=O)[C@H](CC(=O)O)NC(=O)[C@H](CCC(N)=O)NC(=O)[C@H](CC(C)C)NC(=O)[C@H](CC(C)C)NC(=O)[C@H](CCCN)NC(=O)[C@H](CCCNC(=N)N)NC(=O)[C@H](C)NC(=O)[C@H](CO)NC(=O)[C@H](CC(C)C)NC(=O)[C@H](CCC(N)=O)NC(=O)[C@H](CC)NC(=O)[C@H](CC(C)C)NC(=O)[C@@H](NC(=O)[C@H](CCCN)NC(=O)[C@H](CCCNC(=N)N)NC(=O)[C@H](Cc1ccc(O)cc1)NC(=O)[C@H](CO)NC(=O)[C@H](CCC(N)=O)NC(=O)[C@@H](NC(=O)[C@H](Cc1ccccc1)NC(=O)[C@@H](NC(=O)[C@H](C)NC(=O)[C@H](CC(=O)O)NC(=O)[C@@H](C)NC(=O)[C@H](Cc1ccc(O)cc1)N(C)C(C)=O)[C@@H](C)CC)[C@@H](C)O)C(C)C)[C@@H](C)CC)C(=O)N[C@@H](CC(=O)O)C(=O)NCCCCNC(=N)N) | 3.44 | 1.26 | 0.71 | 1.98 vs hGHRH(1-29)NH2=1 | 3.87 |
| [NMeY][dA]DAIFTTSYR[Orn]VL[Abu]QLSAR[Orn]LLQDI[Nle]DR-NHMe [P-27410 [N-Me-Tyr^1, D-Ala^2, Thr^8, Orn^12, Abu^15, Orn^21, Nle^27, Asp^28]hGHRH(1-29)NH-CH3] | 0.83 | 5.24 | 2.14 | 5.98 vs hGHRH(1-29)NH2=1 | 1.28 |
| [NMeY][dA]DAIFTNSYR[Orn]VL[Abu]QLSAR[Orn]LLQDI[Nle]DR-NHEt [P-28421 [N-Me-Tyr^1, D-Ala^2, Orn^12, Abu^15, Orn^21, Nle^27, Asp^28]hGHRH(1-29)NH-CH2-CH3] | 1.47 | 2.96 | 0.9 | 2.5 vs hGHRH(1-29)NH2=1 | 3.05 |
| [Desaminotyrosyl]ADAIFTQSYR[Orn]VL[Abu]QLSAR[Orn]LLQDI[Nle]DR[Ava]-NH2 (SMILES CCCC[C@H](NC(=O)[C@@H](NC(=O)[C@H](CC(=O)O)NC(=O)[C@H](CCC(N)=O)NC(=O)[C@H](CC(C)C)NC(=O)[C@H](CC(C)C)NC(=O)[C@H](CCCN)NC(=O)[C@H](CCCNC(=N)N)NC(=O)[C@H](C)NC(=O)[C@H](CO)NC(=O)[C@H](CC(C)C)NC(=O)[C@H](CCC(N)=O)NC(=O)[C@H](CC)NC(=O)[C@H](CC(C)C)NC(=O)[C@@H](NC(=O)[C@H](CCCN)NC(=O)[C@H](CCCNC(=N)N)NC(=O)[C@H](Cc1ccc(O)cc1)NC(=O)[C@H](CO)NC(=O)[C@H](CCC(N)=O)NC(=O)[C@@H](NC(=O)[C@H](Cc1ccccc1)NC(=O)[C@@H](NC(=O)[C@H](C)NC(=O)[C@H](CC(=O)O)NC(=O)[C@H](C)NC(=O)CCc1ccc(O)cc1)[C@@H](C)CC)[C@@H](C)O)C(C)C)[C@@H](C)CC)C(=O)N[C@@H](CC(=O)O)C(=O)N[C@@H](CCCNC(=N)N)C(=O)NCCCCC(N)=O) [P-22327 [Dat^1, Gln^8, Orn^12, Abu^15, Orn^21, Nle^27, Asp^28, Apa^30]hGHRH(1-30)NH2] | 1.99 | 2.18 | 1.34 | 3.75 vs hGHRH(1-29)NH2=1 |  |

The next binders have a lower IC50 [1] than those just listed; values first:

| IC50 [1] [nM] | relative affinity (binding potency) vs JI-38 [1] [vs JI-38=1] | relative affinity (binding potency) compared to JI-38 [2] [vs JI-38=1] | relative affinity (binding potency) compared to hGHRH(1-29) [2] | IC50 [2] [nM] | Binder |
| --- | --- | --- | --- | --- | --- |
| 0.3 | 14.5 | 2.95 | 8.22 vs hGHRH(1-29)NH2=1 |  | [NMeY]ADAIFTQSYR[Orn]VL[Abu]QLSAR[Orn]LLQDI[Nle]DR-NHMe [P-27406 [N-Me-Tyr^1, Gln^8, Orn^12, Abu^15, Orn^21, Nle^27, Asp^28]hGHRH(1-29)NH-CH3] |
| 0.71 | 6.12 | 2.8 | 7.81 vs hGHRH(1-29)NH2=1 | 0.98 | [NMeY][dA]DAIFTQSYR[Orn]VL[Abu]QLSAR[Orn]LLQDI[Nle]DR[Ava]-NH2 (N-terminus assumed; SMILES CCCC[C@H](NC(=O)[C@@H](NC(=O)[C@H](CC(=O)O)NC(=O)[C@H](CCC(N)=O)NC(=O)[C@H](CC(C)C)NC(=O)[C@H](CC(C)C)NC(=O)[C@H](CCCN)NC(=O)[C@H](CCCNC(=N)N)NC(=O)[C@H](C)NC(=O)[C@H](CO)NC(=O)[C@H](CC(C)C)NC(=O)[C@H](CCC(N)=O)NC(=O)[C@H](CC)NC(=O)[C@H](CC(C)C)NC(=O)[C@@H](NC(=O)[C@H](CCCN)NC(=O)[C@H](CCCNC(=N)N)NC(=O)[C@H](Cc1ccc(O)cc1)NC(=O)[C@H](CO)NC(=O)[C@H](CCC(N)=O)NC(=O)[C@@H](NC(=O)[C@H](Cc1ccccc1)NC(=O)[C@@H](NC(=O)[C@H](C)NC(=O)[C@H](CC(=O)O)NC(=O)[C@@H](C)NC(=O)[C@H](Cc1ccc(O)cc1)NC)[C@@H](C)CC)[C@@H](C)O)C(C)C)[C@@H](C)CC)C(=O)N[C@@H](CC(=O)O)C(=O)N[C@@H](CCCNC(=N)N)C(=O)NCCCCC(N)=O) [P-22326 [N-Me-Tyr^1, D-Ala^2, Gln^8, Orn^12, Abu^15, Orn^21, Nle^27, Asp^28, Apa^30]hGHRH(1-30)NH2] |
| 0.52 | 8.37 | 1.01 | 2.83 vs hGHRH(1-29)NH2=1 | 2.7 | [NMeY][dA]DAIFTQSYR[Orn]VL[Abu]QLSAR[Orn]LLQDI[Nle]DR-NHEt [P-28420 [N-Me-Tyr^1, D-Ala^2, Gln^8, Orn^12, Abu^15, Orn^21, Nle^27, Asp^28]hGHRH(1-29)NH-CH2-CH3] |

— US20180250358A1, “GHRH AGONISTS FOR THE TREATMENT OF ISCHEMIC DISORDERS” (published 2018)
